Experimental data reported in patent US20250051467A1 (JIANGSU HENGRUI PHARMACEUTICALS, published 2025).

Assays:
h-FAP-His [1] = target: T1, h-FAP-His (human, UniProt Q12884 26-760); assay: SPR, antibody captured by anti-human IgG Fc, h-FAP-His analyte
T1 construct: range 26-760; Bought recombinant protein with a His tag; also called human FAP-His protein; FAP recombinant protein with a His tag
Procedure: A CM5 sensor chip was used, and HBS-EP+buffer solution (10 mM HEPES, 150 mM NaCl, 3 mM EDTA, 0.05% surfactant P20) was used as the mobile phase. An anti-human IgG (Fc) antibody was made into a […] solution in a 10 mM sodium acetate buffer solution (pH 5.0) and immobilized by amino coupling. The test antibodies were diluted in HBS-EP+buffer solution and captured by the anti-human IgG (Fc) antibody on chip channels. h-FAP-His was dissolved in HBS-EP+buffer solution to prepare an analyte, and the analyte was serially diluted 2-fold. The diluted antibodies were passed through the experimental and reference channels at a flow rate of […], with 1 min of binding and 15 min of disassociation. 10 mM Glycine pH 1.5 was passed as a regeneration buffer solution for 30 s at a flow rate of […]. Data were analyzed. […] However, the binding affinities of the other anti-FAP antibodies obtained by screening at the same time in the present disclosure, such as Ab2, Ab4 and Ab5 (sequences not shown), for the antigen are lower than that of 28H1.

mouse FAP on CHOK1 cells [2] = target: T2, mouse FAP on CHOK1 cells (mouse, UniProt P97321 1-761); assay: FACS, percent of marked cells overexpressing mouse FAP, anti-hIgG Alexa Fluor-647 secondary antibody
T2 construct: whole, on cells; also called cell surface mouse FAP
T2 sequence (P97321 whole entry): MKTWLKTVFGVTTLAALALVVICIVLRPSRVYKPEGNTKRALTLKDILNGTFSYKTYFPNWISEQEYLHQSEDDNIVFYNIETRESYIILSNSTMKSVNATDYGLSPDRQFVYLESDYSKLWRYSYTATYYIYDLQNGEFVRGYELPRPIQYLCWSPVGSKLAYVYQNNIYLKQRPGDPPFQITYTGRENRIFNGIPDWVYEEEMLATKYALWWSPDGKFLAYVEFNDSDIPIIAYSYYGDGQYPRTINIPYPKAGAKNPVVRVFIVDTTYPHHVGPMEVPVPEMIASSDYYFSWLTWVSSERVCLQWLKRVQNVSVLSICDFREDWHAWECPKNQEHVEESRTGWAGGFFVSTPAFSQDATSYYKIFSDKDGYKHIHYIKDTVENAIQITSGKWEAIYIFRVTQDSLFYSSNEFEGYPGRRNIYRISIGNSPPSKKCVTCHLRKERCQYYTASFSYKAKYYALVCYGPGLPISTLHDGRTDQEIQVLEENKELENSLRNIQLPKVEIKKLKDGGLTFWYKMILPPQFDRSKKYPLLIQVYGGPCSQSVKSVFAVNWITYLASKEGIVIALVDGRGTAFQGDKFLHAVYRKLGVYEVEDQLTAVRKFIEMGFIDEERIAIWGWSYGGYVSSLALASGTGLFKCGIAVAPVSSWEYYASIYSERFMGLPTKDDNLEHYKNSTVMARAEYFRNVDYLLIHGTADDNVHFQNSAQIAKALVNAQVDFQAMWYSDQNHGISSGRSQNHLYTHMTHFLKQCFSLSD
Procedure: (§1) A FACS assay was used to measure the binding properties of anti-FAP antibodies on cells. The assay comprises the following steps: A CHO cell line overexpressing human FAP was constructed and plated (1E5/well). The test antibodies were added at 100 μL/well. The highest concentration was 100 nM. A 5-fold dilution was performed, yielding 8 concentrations in total. The plate was incubated at 4° C. for 1 h. Anti-hIgG Alexa Fluor-647 was added as a secondary antibody in the ratio of 1:500. The plate was incubated at 4° C. for 30 min, and a FACS assay was performed. Antibodies that bind to FAP can mark cells. The relation between the percentage of the marked cells that over-express human FAP among all cells and the antibody concentration is shown in FIG. 1. The relation between the percentage of the marked cells that over-express mouse FAP among all cells and the antibody concentration is shown in FIG. 2.

human FAP on CHO cells [3] = target: T3, human FAP on CHO cells (human, UniProt Q12884 1-760); assay: FACS, CHO cells overexpressing human FAP
T3 construct: whole, on cells; also called CHO cell line overexpressing human FAP; CHOK1/FAP
Procedure: as §1

[4] = target: T4, human FAP protein (Acro, FAP-H5244) (human, UniProt Q12884 26-760); assay: SPR (Biacore 8K), antibody captured by anti-human IgG Fc, human FAP analyte
T4 construct: Bought protein
Procedure: (§2) The affinities of the anti-FAP/CD40 bispecific antibodies for their antigens, the human FAP protein (Acro, FAP-H5244) and the human CD40 protein (Acro, CD0-H5228), were measured by SPR (GE Healthcare; Biacore 8K). A CM5 sensor chip was used, and HBS-EP+buffer solution (10 mM HEPES, 150 mM NaCl, 3 mM EDTA, 0.05% surfactant P20) was used as the mobile phase. An anti-human IgG (Fc) antibody was immobilized by amino coupling. The test antibodies were separately diluted in HBS-EP+buffer solution as ligands and captured by the anti-human IgG (Fc) antibody on chip channels. Antigenic proteins of different species were used as analytes.

mouse FAP on CHOK1 cells [5] = target: T2, mouse FAP on CHOK1 cells; assay: FACS, CHOK1 cells stably expressing mouse FAP
Procedure: (§3) In this experiment, the binding of the anti-FAP/CD40 bispecific antibodies to stably transfected strains of CHOK1 cells that highly express human FAP, cynomolgus monkey FAP and mouse FAP was measured by FACS.

[6] = target: T5, cynomolgus monkey FAP on CHOK1 cells (cynomolgus monkey); assay: FACS, CHOK1 cells stably expressing cynomolgus monkey FAP
T5 construct: whole, on cells
Procedure: as §3

[7] = target: T6, human CD40 on cells (Raji cells; HEK-Blue CD40L cells; human dendritic cells) (human, UniProt P25942 21-277); assay: flow cytometry on immature human dendritic cells (CD40)
T6 construct: whole, on cells; One entry for untagged full-length human CD40 on cells; also called Raji cell surface human CD40; human cell surface CD40 antigen
T6 sequence (P25942 21-277): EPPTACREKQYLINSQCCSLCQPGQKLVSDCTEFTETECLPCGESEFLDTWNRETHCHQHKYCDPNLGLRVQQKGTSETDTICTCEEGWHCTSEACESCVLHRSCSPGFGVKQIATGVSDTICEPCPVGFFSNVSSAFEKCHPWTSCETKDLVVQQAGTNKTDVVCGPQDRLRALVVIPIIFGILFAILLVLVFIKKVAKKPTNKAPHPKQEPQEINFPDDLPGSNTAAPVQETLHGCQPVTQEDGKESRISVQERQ

human FAP on CHO cells [8] = target: T3, human FAP on CHO cells; assay: FACS, CHOK1 cells stably expressing human FAP
Procedure: as §3

[9] = target: T6, human CD40 on cells (Raji cells; …); assay: FACS, HEK-Blue CD40L cells expressing human CD40
Procedure: (§4) The binding of the bispecific antibodies to cell surface CD40 was measured by FACS, including HEK-Blue™CD40L cells highly expressing human CD40 (Invivogen, Cat #hkb-cd40), and HEK293 cells that were transiently transfected with cynomolgus monkey CD40 plasmids (Sino Biological, cat #CG90970-UT) and thus made to highly express cynomolgus monkey CD40. […] See FIGS. 9A, 9B and 11 and Table 21 for details.

h-CD40-His = target: T7, h-CD40-His (human, UniProt P25942 21-193); assay: SPR (Biacore 8K), antibody captured by anti-human IgG Fc, human CD40 analyte
T7 construct: range 21-193; Bought His-tagged recombinant protein; also called human CD40 protein (Acro, CD0-H5228); human CD40
T7 sequence (P25942 21-193 limits assumed): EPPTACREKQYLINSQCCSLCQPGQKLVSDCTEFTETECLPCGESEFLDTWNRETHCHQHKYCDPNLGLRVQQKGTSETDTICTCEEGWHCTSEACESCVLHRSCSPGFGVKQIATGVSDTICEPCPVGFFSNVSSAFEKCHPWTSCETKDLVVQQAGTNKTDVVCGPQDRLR
Procedure: as §2

[10] = target: T8, cynomolgus monkey CD40 on HEK293 cells (cynomolgus monkey, UniProt G7PG38 21-278); assay: FACS, HEK293 cells transiently expressing cynomolgus monkey CD40
T8 construct: whole, on cells
Procedure: as §4

h-FAP-His [11] = target: T1, h-FAP-His; assay: ELISA, human FAP-His coated
Procedure: A FAP recombinant protein with a His tag was directly used for coating. After the antibodies were added, a secondary antibody (an HRP-conjugated anti-human IgG antibody) and the HRP substrate TMB were added to measure the binding activity of the antibodies to the antigen. The assay comprises the following steps: A […] solution of human FAP-His protein was used to coat a 96-well microplate at 100 μL/well, and the plate was incubated overnight at 4° C. After a thorough wash, a blocking solution was added at 200 μL/well, and the plate was incubated at room temperature for 2 h. After a thorough wash, dilutions of test anti-FAP antibodies were added at 100 μL/well. The plate was incubated at room temperature for 1 h. After a thorough wash, a 1:20,000 dilution of an HRP-labeled goat anti-human IgG secondary antibody was added at 100 μL/well. The plate was incubated at room temperature for 1 h. After a thorough wash, TMB was added at 100 μL/well, and the plate was incubated in the dark for 15 min. 0.16 M sulfuric acid was added at 50 μL/well. The OD value at 450 nm was measured on a Thermo MultiSkanFc microplate reader, and the binding EC₅₀ values of the anti-FAP antibodies were calculated.

B1: 28H1 (antibody, V domains shown)
VH: EVQLLESGGGLVQPGGSLRLSCAASGFTFSSHAMSWVRQAPGKGLEWVSAIWASGEQYYADSVKGRFTISRDNSKNTLYLQMNSLRAEDTAVYYCAKGWLGNFDYWGQGTLVTVSS
VL: EIVLTQSPGTLSLSPGERATLSCRASQSVSRSYLAWYQQKPGQAPRLLIIGASTRATGIPDRFSGSGSGTDFTLTISRLEPEDFAVYYCQQGQVIPPTFGQGTKVEIK
notes: also called control anti-FAP antibody 28H1
h-FAP-His [1]
  Kd: 1.31 nM
  Ratio of KD of 28H1 to KD of test antibody: 1
  Ratio of Kd of 28H1 to Kd of test antibody: 1
  koff: 0.000255 s⁻¹
  kon: 195000 M⁻¹ s⁻¹
Mouse FAP on CHOK1 cells [2]
  EC50 (read off the curve): ~1 ng/mL
Human FAP on CHO cells [3]
  EC50: 0.784 ng/mL

B2: Ab10-A297V3-2 (bispecific antibody, human IgG1, kappa, L234A L235A)
heavy: not shown
light: DIQMTQSPSSVSASVGDRVTITCRASQGISSWLAWYQQKPGKAPKLLIYAASSLQSGVPSRFSGSGSGTDFTLTISSLQPEDFATYYCQQANSFPPAFGQGTKVEIKRTVAAPSVFIFPPSDEQLKSGTASVVCLLNNFYPREAKVQWKVDNALQSGNSQESVTEQDSKDSTYSLSSTLTLSKADYEKHKVYACEVTHQGLSSPVTKSFNRGEC
notes: Ab10 IgG1 (L234A/L235A) with one A297V3 VHH on each heavy chain C-terminus; divalent for CD40; also called Ab0-A297V3-2
[4]
  Kd: 0.405 nM
  koff: 8.22e-05 s⁻¹
  kon: 203000 M⁻¹ s⁻¹
Mouse FAP on CHOK1 cells [5]
  EC50: 0.79 nM
  Emax (MFI): 12600 MFI
[6]
  EC50: 1.09 nM
  Emax (MFI): 28200 MFI
[7]
  EC50 (read off the curve): ~4 nM
Human FAP on CHO cells [8]
  EC50: 2.51 nM
  Emax (MFI): 65200 MFI
[9]
  EC50: 1.66 nM
  Emax (MFI): 6250 MFI
h-CD40-His
  Kd: 141 nM
  koff: 0.0294 s⁻¹
  kon: 209000 M⁻¹ s⁻¹
[10]
  EC50: 1.31 nM
  Emax (MFI): 4930 MFI

B3: Ab10-A297V3-4 (bispecific antibody, human IgG1, kappa, L234A L235A)
heavy: not shown
light: DIQMTQSPSSVSASVGDRVTITCRASQGISSWLAWYQQKPGKAPKLLIYAASSLQSGVPSRFSGSGSGTDFTLTISSLQPEDFATYYCQQANSFPPAFGQGTKVEIKRTVAAPSVFIFPPSDEQLKSGTASVVCLLNNFYPREAKVQWKVDNALQSGNSQESVTEQDSKDSTYSLSSTLTLSKADYEKHKVYACEVTHQGLSSPVTKSFNRGEC
notes: Ab10 IgG1 (L234A/L235A) with two A297V3 VHHs in tandem on each heavy chain C-terminus; tetravalent for CD40; also called Ab0-A297V3-4
[4]
  Kd: 0.378 nM
  koff: 6.96e-05 s⁻¹
  kon: 184000 M⁻¹ s⁻¹
Mouse FAP on CHOK1 cells [5]
  EC50: 1.65 nM
  Emax (MFI): 12700 MFI
[6]
  EC50: 1.35 nM
  Emax (MFI): 32500 MFI
[7]
  EC50 (read off the curve): ~1 nM
Human FAP on CHO cells [8]
  EC50: 1.57 nM
  Emax (MFI): 53800 MFI
[9]
  EC50: 0.94 nM
  Emax (MFI): 5080 MFI
h-CD40-His
  Kd: 262 nM
  koff: 0.137 s⁻¹
  kon: 524000 M⁻¹ s⁻¹
[10]
  EC50: 0.88 nM
  Emax (MFI): 5120 MFI

B4: Ab9 (antibody, human IgG1, kappa, L234A L235A, V domains shown)
VH: QMQLVQSGAEVKKPGASVTVSCRASGYSFADHFIHWVRQAPGQGFQWMGWINPNRGVTHHAQDFQGRVAMTRDMSTDTVYMELTSLRSDDTAVYYCARDESLTARPYYFYGFDVWGQGTLVTVSS
VL: DIQMTQSPSSVSASVGDRVTITCRASQGISSWLAWYQQKPGKAPKLLIYAASSLQSGVPSRFSGSGSGTDFTLTISSLQPEDFATYYCQQANSFPPAFGQGTKVEIKR
notes: Fully human, IgG1 / kappa; also called anti-FAP antibody Ab9
h-FAP-His [1]
  Kd: 0.306 nM
  Ratio of KD of 28H1 to KD of test antibody: 4.3
  Ratio of Kd of 28H1 to Kd of test antibody: 3.54
  koff: 7.19e-05 s⁻¹
  kon: 235000 M⁻¹ s⁻¹
h-FAP-His [11]
  EC50: 101000 ng/mL
Mouse FAP on CHOK1 cells [2]
  EC50 (read off the curve): ~5 ng/mL
Human FAP on CHO cells [3]
  EC50: 0.368 ng/mL

B5: Ab10 (antibody, human IgG1, kappa, L234A L235A, V domains shown)
VH: QVQLQQSGVEVKKPGASVTVSCRASGYSFADHFIHWVRQAPGQGFQWMGWINPNRGVTHHAQDFQGRVAMTRDMSTDTVYMELTSLRSDDTAVYYCARDASLTARPYYFYGFDVWGQGTLVTVSS
VL: DIQMTQSPSSVSASVGDRVTITCRASQGISSWLAWYQQKPGKAPKLLIYAASSLQSGVPSRFSGSGSGTDFTLTISSLQPEDFATYYCQQANSFPPAFGQGTKVEIKR
notes: Fully human, IgG1 / kappa; also called anti-FAP antibody Ab10; Ab110
h-FAP-His [1]
  Kd: 0.245 nM
  Ratio of KD of 28H1 to KD of test antibody: 5.3
  Ratio of Kd of 28H1 to Kd of test antibody: 3.5
  koff: 7.28e-05 s⁻¹
  kon: 297000 M⁻¹ s⁻¹
[4]
  Kd: 0.34 nM
  koff: 7.39e-05 s⁻¹
  kon: 217000 M⁻¹ s⁻¹
h-FAP-His [11]
  EC50: 92000 ng/mL
Mouse FAP on CHOK1 cells [5]
  EC50: 10.4 nM
  Emax (MFI): 26400 MFI
[6]
  EC50: 7.34 nM
  Emax (MFI): 64600 MFI
Mouse FAP on CHOK1 cells [2]
  EC50 (read off the curve): ~2 ng/mL
Human FAP on CHO cells [8]
  EC50: 1.41 nM
  Emax (MFI): 72000 MFI
Human FAP on CHO cells [3]
  EC50: 0.432 ng/mL
